Reference: the supplement of paper PMC10065799, “High-throughput profiling of sequence recognition by tyrosine kinases and SH2 domains using bacterial peptide display” (eLife, 2023)

Assays:
[1] = system: AncSZ; assay: phosphorylation enrichment, bacterial display (enrichment ratio); higher = better substrate or ligand; peptides without Tyr show the background
[2] = molecular target: EPHB1 (UniProt P54762); assay: as above
[3] = molecular target: EPHB2 (UniProt P29323); assay: as above
[4] = molecular target: FGFR1 (UniProt P11362); assay: as above
[5] = molecular target: FGFR3 (UniProt P22607); assay: as above
FGFR3, sequence (P22607 whole entry, looked up): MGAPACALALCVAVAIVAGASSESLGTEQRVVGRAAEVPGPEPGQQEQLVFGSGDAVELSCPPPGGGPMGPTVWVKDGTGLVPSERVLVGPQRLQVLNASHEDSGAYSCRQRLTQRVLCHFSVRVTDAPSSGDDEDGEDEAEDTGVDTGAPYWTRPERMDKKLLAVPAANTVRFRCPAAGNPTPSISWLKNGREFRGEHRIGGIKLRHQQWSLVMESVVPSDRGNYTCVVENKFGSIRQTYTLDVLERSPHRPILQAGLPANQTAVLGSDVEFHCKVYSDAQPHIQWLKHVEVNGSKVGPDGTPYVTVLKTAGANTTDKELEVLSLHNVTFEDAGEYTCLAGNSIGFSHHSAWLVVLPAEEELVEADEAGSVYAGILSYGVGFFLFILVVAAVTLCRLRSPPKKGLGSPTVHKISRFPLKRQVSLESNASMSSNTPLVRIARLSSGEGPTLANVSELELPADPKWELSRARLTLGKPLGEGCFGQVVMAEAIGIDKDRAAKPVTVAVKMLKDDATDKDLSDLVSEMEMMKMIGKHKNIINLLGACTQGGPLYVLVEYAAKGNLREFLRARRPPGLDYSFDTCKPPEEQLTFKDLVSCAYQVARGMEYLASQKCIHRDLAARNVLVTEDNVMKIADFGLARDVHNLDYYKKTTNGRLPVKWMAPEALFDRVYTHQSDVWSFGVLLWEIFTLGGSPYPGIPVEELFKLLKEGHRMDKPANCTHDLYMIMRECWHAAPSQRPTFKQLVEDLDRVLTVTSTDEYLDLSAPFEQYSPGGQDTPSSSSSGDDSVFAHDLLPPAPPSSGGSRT

[6] = system: Fer (mouse); assay: as above
[7] = molecular target: Fes (UniProt P07332); assay: as above
[8] = molecular target: Fyn (UniProt P06241); assay: as above
Fyn, sequence (P06241 whole entry, looked up): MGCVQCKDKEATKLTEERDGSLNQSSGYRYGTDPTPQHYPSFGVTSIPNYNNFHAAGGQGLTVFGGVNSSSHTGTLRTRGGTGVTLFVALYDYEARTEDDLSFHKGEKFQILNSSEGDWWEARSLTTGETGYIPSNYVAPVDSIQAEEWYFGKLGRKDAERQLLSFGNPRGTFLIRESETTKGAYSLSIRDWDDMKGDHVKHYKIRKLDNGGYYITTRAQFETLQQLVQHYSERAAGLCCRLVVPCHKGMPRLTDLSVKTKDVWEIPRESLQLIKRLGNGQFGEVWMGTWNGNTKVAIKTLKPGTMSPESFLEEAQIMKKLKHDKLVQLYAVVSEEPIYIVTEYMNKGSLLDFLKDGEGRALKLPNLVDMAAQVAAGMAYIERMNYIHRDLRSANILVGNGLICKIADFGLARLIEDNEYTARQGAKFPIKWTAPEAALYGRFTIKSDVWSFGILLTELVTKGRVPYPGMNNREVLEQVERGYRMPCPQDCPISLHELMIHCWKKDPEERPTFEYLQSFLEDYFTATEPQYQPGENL

[9] = molecular target: Hck (UniProt P08631); assay: as above
Hck, sequence (P08631 whole entry, looked up): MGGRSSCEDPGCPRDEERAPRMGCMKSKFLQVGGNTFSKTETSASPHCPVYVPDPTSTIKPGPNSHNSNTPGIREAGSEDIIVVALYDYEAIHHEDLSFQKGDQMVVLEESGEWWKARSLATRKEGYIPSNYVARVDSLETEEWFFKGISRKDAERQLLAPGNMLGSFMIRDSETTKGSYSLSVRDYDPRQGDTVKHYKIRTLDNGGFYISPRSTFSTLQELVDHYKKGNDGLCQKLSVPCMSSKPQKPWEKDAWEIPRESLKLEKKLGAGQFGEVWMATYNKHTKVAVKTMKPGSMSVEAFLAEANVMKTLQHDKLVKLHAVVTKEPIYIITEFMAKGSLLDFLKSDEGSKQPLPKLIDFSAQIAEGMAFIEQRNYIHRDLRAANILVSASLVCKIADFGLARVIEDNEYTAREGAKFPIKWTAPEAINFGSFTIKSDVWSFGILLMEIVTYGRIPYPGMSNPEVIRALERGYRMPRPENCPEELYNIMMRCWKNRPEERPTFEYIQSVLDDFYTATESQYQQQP

[10] = molecular target: Jak2 (UniProt O60674); assay: as above
Jak2, sequence (O60674 whole entry, looked up): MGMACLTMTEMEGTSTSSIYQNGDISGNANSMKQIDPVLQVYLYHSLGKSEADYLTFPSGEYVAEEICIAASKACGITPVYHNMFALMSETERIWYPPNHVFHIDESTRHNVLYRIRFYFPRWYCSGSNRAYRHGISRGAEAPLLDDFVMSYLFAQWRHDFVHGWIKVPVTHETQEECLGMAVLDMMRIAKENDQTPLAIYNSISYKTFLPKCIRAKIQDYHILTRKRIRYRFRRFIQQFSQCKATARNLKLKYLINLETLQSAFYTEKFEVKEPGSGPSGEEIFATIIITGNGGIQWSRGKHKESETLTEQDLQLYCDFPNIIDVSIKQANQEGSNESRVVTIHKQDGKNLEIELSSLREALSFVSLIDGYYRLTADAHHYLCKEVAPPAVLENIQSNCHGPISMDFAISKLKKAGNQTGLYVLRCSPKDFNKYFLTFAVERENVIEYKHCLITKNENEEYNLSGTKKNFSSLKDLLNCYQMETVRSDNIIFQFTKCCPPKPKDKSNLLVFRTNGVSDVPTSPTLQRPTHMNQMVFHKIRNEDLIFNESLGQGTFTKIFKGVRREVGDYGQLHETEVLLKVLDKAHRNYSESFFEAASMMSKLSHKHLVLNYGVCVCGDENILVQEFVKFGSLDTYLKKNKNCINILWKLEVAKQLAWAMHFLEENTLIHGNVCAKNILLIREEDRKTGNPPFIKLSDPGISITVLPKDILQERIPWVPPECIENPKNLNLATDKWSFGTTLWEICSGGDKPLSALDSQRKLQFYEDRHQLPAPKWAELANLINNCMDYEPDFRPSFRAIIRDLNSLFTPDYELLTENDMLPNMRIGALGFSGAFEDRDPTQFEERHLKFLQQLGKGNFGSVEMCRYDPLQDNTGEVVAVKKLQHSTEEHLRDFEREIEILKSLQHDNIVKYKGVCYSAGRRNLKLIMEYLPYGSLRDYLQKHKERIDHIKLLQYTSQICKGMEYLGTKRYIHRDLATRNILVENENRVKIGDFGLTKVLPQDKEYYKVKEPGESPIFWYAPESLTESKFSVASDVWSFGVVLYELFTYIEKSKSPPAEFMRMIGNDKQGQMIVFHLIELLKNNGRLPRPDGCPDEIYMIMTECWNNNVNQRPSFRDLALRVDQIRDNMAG

[11] = molecular target: MERTK (UniProt Q12866); assay: as above
MERTK, sequence (Q12866 whole entry, looked up): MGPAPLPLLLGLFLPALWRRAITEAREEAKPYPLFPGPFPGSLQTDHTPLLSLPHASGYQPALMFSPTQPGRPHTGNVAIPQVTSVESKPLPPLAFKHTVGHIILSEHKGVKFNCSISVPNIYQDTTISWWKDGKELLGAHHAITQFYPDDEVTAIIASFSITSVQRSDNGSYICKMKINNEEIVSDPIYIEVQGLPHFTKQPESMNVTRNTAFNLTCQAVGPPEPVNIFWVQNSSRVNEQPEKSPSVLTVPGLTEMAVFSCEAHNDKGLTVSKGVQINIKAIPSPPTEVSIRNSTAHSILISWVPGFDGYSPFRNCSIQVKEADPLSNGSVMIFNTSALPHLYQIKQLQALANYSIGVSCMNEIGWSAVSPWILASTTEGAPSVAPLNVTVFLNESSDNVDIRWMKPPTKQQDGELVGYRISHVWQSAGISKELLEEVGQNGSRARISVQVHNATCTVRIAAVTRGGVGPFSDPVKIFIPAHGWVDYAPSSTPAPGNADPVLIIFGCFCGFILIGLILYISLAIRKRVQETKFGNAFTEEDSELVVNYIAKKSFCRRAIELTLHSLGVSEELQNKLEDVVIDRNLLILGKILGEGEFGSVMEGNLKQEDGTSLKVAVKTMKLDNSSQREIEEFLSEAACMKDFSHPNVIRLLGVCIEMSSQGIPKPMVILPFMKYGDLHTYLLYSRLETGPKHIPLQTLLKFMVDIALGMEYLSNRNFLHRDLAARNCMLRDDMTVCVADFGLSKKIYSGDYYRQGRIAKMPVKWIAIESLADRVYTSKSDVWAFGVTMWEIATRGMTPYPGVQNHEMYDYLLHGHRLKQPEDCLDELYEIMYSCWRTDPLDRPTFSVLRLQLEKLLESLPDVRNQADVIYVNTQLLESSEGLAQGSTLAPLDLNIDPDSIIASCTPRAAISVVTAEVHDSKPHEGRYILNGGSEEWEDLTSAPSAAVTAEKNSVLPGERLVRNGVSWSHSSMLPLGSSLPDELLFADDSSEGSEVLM

[12] = system: c-Abl (mouse); assay: as above
[13] = system: c-Src; assay: as above
[14] = molecular target: Grb2 SH2 (UniProt P62993); assay: SH2 binding enrichment of the phosphorylated peptide, bacterial display (enrichment ratio); higher = better substrate or ligand; peptides without Tyr show the background
[15] = molecular target: SHP2-C SH2; assay: as above
[16] = molecular target: c-Src SH2; assay: as above
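Wherever SH2 binding enrichment of the phosphorylated peptide, bacterial display is given: peptide library displayed on the E. coli surface as eCPX fusions, selected cells deep-sequenced, score is each peptide's frequency after selection divided by its frequency in the input.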
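Wherever phosphorylation enrichment, bacterial display is given: 11-residue human phosphosite peptides and single-mutation variants displayed on the E. coli surface, counted by deep sequencing, each peptide's frequency after selection divided by its frequency in the unselected input library; frequency after pTyr selection over input frequency; kinase dosed for 20-30% of maximal phosphorylation in three min.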

EPHB2, sequence (P29323 whole entry, looked up): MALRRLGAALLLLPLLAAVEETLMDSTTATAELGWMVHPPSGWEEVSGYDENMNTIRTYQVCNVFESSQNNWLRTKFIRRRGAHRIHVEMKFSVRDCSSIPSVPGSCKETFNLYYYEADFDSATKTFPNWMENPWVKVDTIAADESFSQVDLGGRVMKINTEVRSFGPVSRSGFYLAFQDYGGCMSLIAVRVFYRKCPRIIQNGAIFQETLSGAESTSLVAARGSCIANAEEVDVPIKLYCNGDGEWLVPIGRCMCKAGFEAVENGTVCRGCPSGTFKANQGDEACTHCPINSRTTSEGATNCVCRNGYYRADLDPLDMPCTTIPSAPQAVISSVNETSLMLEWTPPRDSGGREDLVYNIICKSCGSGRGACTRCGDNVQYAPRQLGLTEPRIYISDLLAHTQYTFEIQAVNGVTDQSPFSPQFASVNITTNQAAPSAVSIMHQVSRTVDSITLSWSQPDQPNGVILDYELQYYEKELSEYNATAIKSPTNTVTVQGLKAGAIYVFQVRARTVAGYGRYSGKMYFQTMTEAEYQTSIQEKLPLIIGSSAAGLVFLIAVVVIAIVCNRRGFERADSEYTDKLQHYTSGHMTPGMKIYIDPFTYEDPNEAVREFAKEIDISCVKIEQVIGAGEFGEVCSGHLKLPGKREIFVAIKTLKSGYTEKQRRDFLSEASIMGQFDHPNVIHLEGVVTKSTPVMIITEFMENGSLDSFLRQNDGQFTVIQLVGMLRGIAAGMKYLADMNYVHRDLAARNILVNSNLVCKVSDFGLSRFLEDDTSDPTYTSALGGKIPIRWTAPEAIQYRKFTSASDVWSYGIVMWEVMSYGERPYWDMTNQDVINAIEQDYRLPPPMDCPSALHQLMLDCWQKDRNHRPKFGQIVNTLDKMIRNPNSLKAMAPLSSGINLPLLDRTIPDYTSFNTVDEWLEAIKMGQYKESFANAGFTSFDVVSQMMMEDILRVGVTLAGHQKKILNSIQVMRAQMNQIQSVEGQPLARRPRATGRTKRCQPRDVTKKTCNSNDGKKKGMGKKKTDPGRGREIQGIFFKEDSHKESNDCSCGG

SH2 binding enrichment [14]	SH2 binding enrichment [15]	SH2 binding enrichment [16]	Sequence	phosphorylation enrichment [1]	phosphorylation enrichment [2]	phosphorylation enrichment [3]	phosphorylation enrichment [4]	phosphorylation enrichment [5]	phosphorylation enrichment [6]	phosphorylation enrichment [7]	phosphorylation enrichment [8]	phosphorylation enrichment [9]	phosphorylation enrichment [10]	phosphorylation enrichment [11]	phosphorylation enrichment [12]	phosphorylation enrichment [13]
0.614	0.484	0.321	ITLKGYNLSKS [GNPTAB_Y728]	0.601	0.342	0.346	0.397	0.402	0.414	0.686	0.355	0.426	0.482	0.367	0.317	0.451
0.709	0.707	0.469	FARNCYVAGQY [G6PD_Y107_S106C]	1.08	0.55	0.526	0.443	0.641	0.511	1.07	0.437	0.524	0.889	0.49	0.83	0.469
0.825	0.824	0.473	GKLIFHDLRGE [KARS1_Y145_Y145H]	0.696	0.475	0.405	0.37	0.575	0.389	0.802	0.369	0.389	0.632	0.383	0.504	0.399
0.787	0.607	0.39	FDDIAYIRKAL [PIK3CA_Y1021_T1025A]	0.708	0.361	0.448	0.358	0.461	0.387	0.685	0.427	0.495	0.52	0.454	0.5	0.436
0.761	0.768	0.56	ERMKVYVPTGF [EPHX1_Y393]	0.658	0.407	0.522	0.513	0.539	0.562	0.818	0.515	0.472	0.557	0.453	0.672	0.563
0.711	0.547	0.317	GGFTCYSDGKK [PROS1_Y266_C267S_YF]	1.3	0.689	0.586	0.555	0.933	0.654	1.51	0.55	0.55	1.37	0.437	0.856	0.471
1.11	0.777	0.429	FKDVTYLTEEK [UBE3A_Y127]	1.15	0.618	0.691	0.524	0.683	0.423	1.09	0.747	0.53	0.959	0.51	0.726	0.511
1.49	1.83	1.11	YQQLFYLLQTN [IQGAP2_Y890]	1.36	1.92	0.758	2.75	2.26	0.692	1.35	0.751	1.17	1.39	2.7	1.03	1.3
0.959	0.612	0.481	RVYRDYVLKSA [HTATIP2_Y111_D108Y]	1.07	1.01	0.76	0.833	0.825	0.493	1.05	0.645	0.841	0.836	0.693	0.624	0.794
1.11	0.694	0.555	VQSASYLNACL [MCM3AP_Y864]	0.759	0.418	0.473	0.381	0.551	0.47	0.813	0.419	0.384	0.674	0.46	0.645	0.495
0.764	0.765	0.441	SVKVFYKKCWF [EPHA7_Y202_S207F_YF]	1.06	0.782	0.518	0.533	0.833	0.544	1.23	0.568	0.513	1.01	0.425	0.816	0.478
0.799	1.21	0.615	PFTRNYYVRAV [CYBA_Y87]	1.16	0.753	1.41	0.704	0.792	0.422	1.29	0.614	0.666	0.85	0.608	0.747	0.558
0.863	0.609	0.492	TEFIQYVRRKN [MAX_Y73_M74V_YF]	0.66	0.48	0.551	0.74	0.653	0.483	0.626	0.675	0.559	0.521	0.639	0.435	0.473
0.839	0.924	0.778	SLIDMYSEVLD [OPA1_Y268]	1.26	0.621	0.683	0.633	0.719	0.535	1.12	0.575	0.579	1.1	0.527	0.569	0.591
0.809	0.825	0.535	FKGIVYAVSSD [DCX_Y70]	0.86	0.416	0.49	0.424	0.505	0.428	0.916	0.484	0.391	0.802	0.371	0.629	0.49

More lines, now with the values behind:

Sequence	SH2 binding enrichment [14]	SH2 binding enrichment [15]	SH2 binding enrichment [16]	phosphorylation enrichment [1]	phosphorylation enrichment [2]	phosphorylation enrichment [3]	phosphorylation enrichment [4]	phosphorylation enrichment [5]	phosphorylation enrichment [6]	phosphorylation enrichment [7]	phosphorylation enrichment [8]	phosphorylation enrichment [9]	phosphorylation enrichment [10]	phosphorylation enrichment [11]	phosphorylation enrichment [12]	phosphorylation enrichment [13]
HNQDGYSYPSR [LDLR_Y845]	1.07	0.707	6.74	1.25	0.55	0.584	0.614	0.886	0.738	0.826	0.836	0.618	0.831	0.913	0.823	0.661
VYLGAYDHFLP [SLC22A5_Y486_R488H]	0.755	4.29	0.757	2.28	4.38	7.25	1.6	1.62	7.24	1.25	6.16	5.47	1.39	9.45	2.69	6.2
NHYKIYNLCAE [PTEN_Y68]	0.941	0.826	1.2	0.579	0.432	0.442	0.409	0.77	0.439	0.784	1.61	0.85	0.493	0.407	0.547	2.05
ANQDDHISFRH [IMP4_Y226_Y226H]	1.02	0.512	0.502	0.852	0.518	0.497	0.456	0.535	0.416	0.903	0.419	0.501	0.833	0.453	0.912	0.611
DAPVVYLGSFR [PRAG1_Y132]	1.08	5.6	0.53	0.773	0.402	0.449	0.418	0.52	0.448	0.906	0.436	0.575	0.73	0.476	0.743	0.449
KNAEKYAEEDR [HSPA9_Y568]	0.992	0.819	0.624	1.08	0.506	0.506	0.47	0.709	0.499	1.1	0.528	0.571	0.822	0.444	0.674	0.411
QSGGQYSSQGL [TNNI3K_Y788_A785G]	0.787	0.446	0.577	0.655	0.506	0.434	0.486	0.854	0.401	0.779	0.488	0.72	0.835	0.4	0.676	0.495
GLSSAYGGLTS [KRT8_Y427]	0.876	0.572	0.42	0.516	0.555	0.347	0.351	0.449	0.422	0.584	0.513	0.545	0.506	0.341	0.543	0.469
MDNQEYKDAFK [BRDT_Y331_YF]	1.07	0.721	0.532	1.15	0.715	0.602	0.504	0.67	0.505	1.39	0.493	0.584	1.22	0.442	1.22	0.526
GDNSIYVTKII [DLG1_Y349]	0.878	0.661	0.36	0.748	0.472	0.693	0.523	0.537	0.521	0.782	0.622	0.863	0.689	0.524	0.518	0.768
AVLSLYASGRT [ACTA1_Y145]	0.971	0.731	0.555	1.02	0.622	0.571	0.523	0.699	0.503	1.2	0.489	0.702	1.04	0.413	0.813	0.461
FFHKFYNKSED [RYR1_Y4864_R4861H]	0.741	0.746	0.521	1	0.727	0.719	0.665	0.948	0.497	1.43	0.558	0.616	1.09	0.761	0.72	0.588
YLGRNYLETLM [DUS3L_Y610_D609N]	1.01	1.1	0.41	0.859	0.578	0.467	0.85	0.744	0.487	0.926	0.435	0.551	0.705	0.467	0.765	0.411
LEYAKYGSLRG [RET_Y809_V804L]	0.619	0.785	0.529	0.63	3.25	2.96	0.651	0.618	2.26	0.765	1.87	2.57	0.55	0.687	1.73	2.49
SVTCRYSPALN [TP53_Y126_T125R]	0.663	0.539	0.366	0.864	0.508	0.446	0.413	0.561	0.437	0.938	0.397	0.392	0.805	0.514	0.611	0.427
LDFNEYFRFLN [HPRT1_Y198_D201Y_YF]	1.49	1.2	0.719	2.34	0.592	0.924	2.7	2.1	0.562	1.29	2.25	1.08	6.54	0.573	1.6	3.62
RLLRGYDQFAF [HLA-B_Y137_H137Y_YF]	1.16	1.25	0.999	0.885	0.505	0.725	0.617	0.627	0.696	1.21	0.591	0.664	0.785	0.645	0.798	0.542
IGNGFYFHVFS [MYBPC3_Y1136_R1138H_YF]	0.982	0.7	0.484	1.06	0.639	0.643	0.472	0.757	0.449	1.31	0.4	0.423	1.28	0.419	1.04	0.381
